Reference: patent publication US20170138946A1 (Memorial Sloan Kettering, published 2017)

Target: T1, Enhancer of zeste homolog 2 (EZH2) (human, UniProt Q15910 1-746, limits assumed)
T1 construct: Endogenous protein in SET2 cells
Experiment: co-immunoprecipitation of endogenous EZH2 and BAP1 in SET2 cells with Western blot, in presence of benzonase
Text: FIG. 13A-L. BAP1 depletion leads to an increase in PRC2 component expression, increased H4K20me1 and deubiquitination of L3MBTL2. (a) Co-immunoprecipitation of endogenous EZH2 and BAP1 in SET2 cells followed by Western blot analysis (performed in presence of benzonase to inhibit interactions dependent on DNA). (b) Bap1, Ezh2 and Suz12 expression by qRT-PCR from sorted granulocyte-macrophage progenitor (GMP; Lin⁻ c-Kit⁺Sca1⁻CD34′Fcγ⁺). (c) Western blot analysis of Bap1 and Ezh2 in bone marrow cells from Bap1 KO and control mice. (d) H4K20me1 quantification from histone mass spectrometry experiments. (e) Cell viability as assessed by Cell Titer Glo viability assay and (f) Annexin V assays for SETD8 overexpression experiments in BAP1 wild-type (MSTO-211H, Meso10) and mutant cell lines H226, deletion; H2452 catalytic mutation). (g) Quantitative qPCR for SETD8 and EZH2 in BAP1 mutant cells with SETD8 overexpression. (h) Western blot analysis for SETD8 and EZH2 in a BAP1 wild-type cell line. (i) Cell Titer Glo assay in cells treated with DMSO or 5, 10, 20 μM BVT594. (j) L3MBTL2 and BAP1 expression in BAP1 wild-type (Met5a, JMN) and mutant mesothelioma cell lines (H226, H2452, H28). (k) 293T cells overexpressing Myc-His tagged ubiquitin and L3MBTL2 cDNA and varying levels of BAP1 (0, 5 μg, 2.5 μg, 1 μg). […] Statistics were calculated with Student t-test; *p<0.05, **p<0.005; ±SEM values reported. […]

T1 sequence (Q15910 whole entry): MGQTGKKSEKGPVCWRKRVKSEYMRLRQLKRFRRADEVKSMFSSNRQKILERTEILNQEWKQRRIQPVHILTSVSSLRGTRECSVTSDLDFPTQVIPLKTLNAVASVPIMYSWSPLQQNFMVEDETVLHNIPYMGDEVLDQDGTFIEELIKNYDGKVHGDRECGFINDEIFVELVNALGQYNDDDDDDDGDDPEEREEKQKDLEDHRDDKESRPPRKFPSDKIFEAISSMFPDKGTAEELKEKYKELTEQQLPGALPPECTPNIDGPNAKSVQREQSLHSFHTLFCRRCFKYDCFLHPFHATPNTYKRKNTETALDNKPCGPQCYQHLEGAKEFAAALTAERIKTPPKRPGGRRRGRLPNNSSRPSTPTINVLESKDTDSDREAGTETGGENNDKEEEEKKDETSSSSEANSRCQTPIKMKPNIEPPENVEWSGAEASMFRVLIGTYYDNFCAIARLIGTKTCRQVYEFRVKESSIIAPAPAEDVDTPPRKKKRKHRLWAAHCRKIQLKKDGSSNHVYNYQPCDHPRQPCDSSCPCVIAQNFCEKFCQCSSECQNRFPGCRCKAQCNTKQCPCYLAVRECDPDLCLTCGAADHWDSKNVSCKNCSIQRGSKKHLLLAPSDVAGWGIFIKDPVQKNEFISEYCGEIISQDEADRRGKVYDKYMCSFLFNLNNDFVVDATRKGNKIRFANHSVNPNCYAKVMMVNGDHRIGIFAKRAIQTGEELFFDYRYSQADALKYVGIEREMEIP

B1: BRCA1 associated protein-1 (BAP1) (enzyme, human, UniProt Q92560 1-729, looked up)
chain: MNKGWLELESDPGLFTLLVEDFGVKGVQVEEIYDLQSKCQGPVYGFIFLFKWIEERRSRRKVSTLVDDTSVIDDDIVNNMFFAHQLIPNSCATHALLSVLLNCSSVDLGPTLSRMKDFTKGFSPESKGYAIGNAPELAKAHNSHARPEPRHLPEKQNGLSAVRTMEAFHFVSYVPITGRLFELDGLKVYPIDHGPWGEDEEWTDKARRVIMERIGLATAGEPYHDIRFNLMAVVPDRRIKYEARLHVLKVNRQTVLEALQQLIRVTQPELIQTHKSQESQLPEESKSASNKSPLVLEANRAPAASEGNHTDGAEEAAGSCAQAPSHSPPNKPKLVVKPPGSSLNGVHPNPTPIVQRLPAFLDNHNYAKSPMQEEEDLAAGVGRSRVPVRPPQQYSDDEDDYEDDEEDDVQNTNSALRYKGKGTGKPGALSGSADGQLSVLQPNTINVLAEKLKESQKDLSIPLSIKTSSGAGSPAVAVPTHSQPSPTPSNESTDTASEIGSAFNSPLRSPIRSANPTRPSSPVTSHISKVLFGEDDSLLRVDCIRYNRAVRDLGPVISTGLLHLAEDGVLSPLALTEGGKGSSPSIRPIQGSQGSSSPVEKEVVEATDSREKTGMVRPGEPLSGEKYSPKELLALLKCVEAEIANYEACLKEEVEKRKKFKIDDQRRTHNYDEFICTFISMLAQEGMLANLVEQNISVRRRQGVSIGRLHKQRKPDRRKRSRPYKAKRQ
notes: Immunoprecipitated from cell lysates; It is endogenous in the human leukemia line SET2
  binding result: no binding
